The source of these data is patent publication US20050220796A1.

Test [1] concerns the target DNA-dependent protein kinase catalytic subunit (DNA-PKcs) (human) (UniProt P78527). Briefly: cell-based or functional assay.
Test [2] has the same target. Briefly: SPR (Biacore X), scFv amine coupled to a CM-5 chip, purified DNA-PKcs as analyte, 25 C.

Sequence of UniProt P78527 (P78527 whole entry): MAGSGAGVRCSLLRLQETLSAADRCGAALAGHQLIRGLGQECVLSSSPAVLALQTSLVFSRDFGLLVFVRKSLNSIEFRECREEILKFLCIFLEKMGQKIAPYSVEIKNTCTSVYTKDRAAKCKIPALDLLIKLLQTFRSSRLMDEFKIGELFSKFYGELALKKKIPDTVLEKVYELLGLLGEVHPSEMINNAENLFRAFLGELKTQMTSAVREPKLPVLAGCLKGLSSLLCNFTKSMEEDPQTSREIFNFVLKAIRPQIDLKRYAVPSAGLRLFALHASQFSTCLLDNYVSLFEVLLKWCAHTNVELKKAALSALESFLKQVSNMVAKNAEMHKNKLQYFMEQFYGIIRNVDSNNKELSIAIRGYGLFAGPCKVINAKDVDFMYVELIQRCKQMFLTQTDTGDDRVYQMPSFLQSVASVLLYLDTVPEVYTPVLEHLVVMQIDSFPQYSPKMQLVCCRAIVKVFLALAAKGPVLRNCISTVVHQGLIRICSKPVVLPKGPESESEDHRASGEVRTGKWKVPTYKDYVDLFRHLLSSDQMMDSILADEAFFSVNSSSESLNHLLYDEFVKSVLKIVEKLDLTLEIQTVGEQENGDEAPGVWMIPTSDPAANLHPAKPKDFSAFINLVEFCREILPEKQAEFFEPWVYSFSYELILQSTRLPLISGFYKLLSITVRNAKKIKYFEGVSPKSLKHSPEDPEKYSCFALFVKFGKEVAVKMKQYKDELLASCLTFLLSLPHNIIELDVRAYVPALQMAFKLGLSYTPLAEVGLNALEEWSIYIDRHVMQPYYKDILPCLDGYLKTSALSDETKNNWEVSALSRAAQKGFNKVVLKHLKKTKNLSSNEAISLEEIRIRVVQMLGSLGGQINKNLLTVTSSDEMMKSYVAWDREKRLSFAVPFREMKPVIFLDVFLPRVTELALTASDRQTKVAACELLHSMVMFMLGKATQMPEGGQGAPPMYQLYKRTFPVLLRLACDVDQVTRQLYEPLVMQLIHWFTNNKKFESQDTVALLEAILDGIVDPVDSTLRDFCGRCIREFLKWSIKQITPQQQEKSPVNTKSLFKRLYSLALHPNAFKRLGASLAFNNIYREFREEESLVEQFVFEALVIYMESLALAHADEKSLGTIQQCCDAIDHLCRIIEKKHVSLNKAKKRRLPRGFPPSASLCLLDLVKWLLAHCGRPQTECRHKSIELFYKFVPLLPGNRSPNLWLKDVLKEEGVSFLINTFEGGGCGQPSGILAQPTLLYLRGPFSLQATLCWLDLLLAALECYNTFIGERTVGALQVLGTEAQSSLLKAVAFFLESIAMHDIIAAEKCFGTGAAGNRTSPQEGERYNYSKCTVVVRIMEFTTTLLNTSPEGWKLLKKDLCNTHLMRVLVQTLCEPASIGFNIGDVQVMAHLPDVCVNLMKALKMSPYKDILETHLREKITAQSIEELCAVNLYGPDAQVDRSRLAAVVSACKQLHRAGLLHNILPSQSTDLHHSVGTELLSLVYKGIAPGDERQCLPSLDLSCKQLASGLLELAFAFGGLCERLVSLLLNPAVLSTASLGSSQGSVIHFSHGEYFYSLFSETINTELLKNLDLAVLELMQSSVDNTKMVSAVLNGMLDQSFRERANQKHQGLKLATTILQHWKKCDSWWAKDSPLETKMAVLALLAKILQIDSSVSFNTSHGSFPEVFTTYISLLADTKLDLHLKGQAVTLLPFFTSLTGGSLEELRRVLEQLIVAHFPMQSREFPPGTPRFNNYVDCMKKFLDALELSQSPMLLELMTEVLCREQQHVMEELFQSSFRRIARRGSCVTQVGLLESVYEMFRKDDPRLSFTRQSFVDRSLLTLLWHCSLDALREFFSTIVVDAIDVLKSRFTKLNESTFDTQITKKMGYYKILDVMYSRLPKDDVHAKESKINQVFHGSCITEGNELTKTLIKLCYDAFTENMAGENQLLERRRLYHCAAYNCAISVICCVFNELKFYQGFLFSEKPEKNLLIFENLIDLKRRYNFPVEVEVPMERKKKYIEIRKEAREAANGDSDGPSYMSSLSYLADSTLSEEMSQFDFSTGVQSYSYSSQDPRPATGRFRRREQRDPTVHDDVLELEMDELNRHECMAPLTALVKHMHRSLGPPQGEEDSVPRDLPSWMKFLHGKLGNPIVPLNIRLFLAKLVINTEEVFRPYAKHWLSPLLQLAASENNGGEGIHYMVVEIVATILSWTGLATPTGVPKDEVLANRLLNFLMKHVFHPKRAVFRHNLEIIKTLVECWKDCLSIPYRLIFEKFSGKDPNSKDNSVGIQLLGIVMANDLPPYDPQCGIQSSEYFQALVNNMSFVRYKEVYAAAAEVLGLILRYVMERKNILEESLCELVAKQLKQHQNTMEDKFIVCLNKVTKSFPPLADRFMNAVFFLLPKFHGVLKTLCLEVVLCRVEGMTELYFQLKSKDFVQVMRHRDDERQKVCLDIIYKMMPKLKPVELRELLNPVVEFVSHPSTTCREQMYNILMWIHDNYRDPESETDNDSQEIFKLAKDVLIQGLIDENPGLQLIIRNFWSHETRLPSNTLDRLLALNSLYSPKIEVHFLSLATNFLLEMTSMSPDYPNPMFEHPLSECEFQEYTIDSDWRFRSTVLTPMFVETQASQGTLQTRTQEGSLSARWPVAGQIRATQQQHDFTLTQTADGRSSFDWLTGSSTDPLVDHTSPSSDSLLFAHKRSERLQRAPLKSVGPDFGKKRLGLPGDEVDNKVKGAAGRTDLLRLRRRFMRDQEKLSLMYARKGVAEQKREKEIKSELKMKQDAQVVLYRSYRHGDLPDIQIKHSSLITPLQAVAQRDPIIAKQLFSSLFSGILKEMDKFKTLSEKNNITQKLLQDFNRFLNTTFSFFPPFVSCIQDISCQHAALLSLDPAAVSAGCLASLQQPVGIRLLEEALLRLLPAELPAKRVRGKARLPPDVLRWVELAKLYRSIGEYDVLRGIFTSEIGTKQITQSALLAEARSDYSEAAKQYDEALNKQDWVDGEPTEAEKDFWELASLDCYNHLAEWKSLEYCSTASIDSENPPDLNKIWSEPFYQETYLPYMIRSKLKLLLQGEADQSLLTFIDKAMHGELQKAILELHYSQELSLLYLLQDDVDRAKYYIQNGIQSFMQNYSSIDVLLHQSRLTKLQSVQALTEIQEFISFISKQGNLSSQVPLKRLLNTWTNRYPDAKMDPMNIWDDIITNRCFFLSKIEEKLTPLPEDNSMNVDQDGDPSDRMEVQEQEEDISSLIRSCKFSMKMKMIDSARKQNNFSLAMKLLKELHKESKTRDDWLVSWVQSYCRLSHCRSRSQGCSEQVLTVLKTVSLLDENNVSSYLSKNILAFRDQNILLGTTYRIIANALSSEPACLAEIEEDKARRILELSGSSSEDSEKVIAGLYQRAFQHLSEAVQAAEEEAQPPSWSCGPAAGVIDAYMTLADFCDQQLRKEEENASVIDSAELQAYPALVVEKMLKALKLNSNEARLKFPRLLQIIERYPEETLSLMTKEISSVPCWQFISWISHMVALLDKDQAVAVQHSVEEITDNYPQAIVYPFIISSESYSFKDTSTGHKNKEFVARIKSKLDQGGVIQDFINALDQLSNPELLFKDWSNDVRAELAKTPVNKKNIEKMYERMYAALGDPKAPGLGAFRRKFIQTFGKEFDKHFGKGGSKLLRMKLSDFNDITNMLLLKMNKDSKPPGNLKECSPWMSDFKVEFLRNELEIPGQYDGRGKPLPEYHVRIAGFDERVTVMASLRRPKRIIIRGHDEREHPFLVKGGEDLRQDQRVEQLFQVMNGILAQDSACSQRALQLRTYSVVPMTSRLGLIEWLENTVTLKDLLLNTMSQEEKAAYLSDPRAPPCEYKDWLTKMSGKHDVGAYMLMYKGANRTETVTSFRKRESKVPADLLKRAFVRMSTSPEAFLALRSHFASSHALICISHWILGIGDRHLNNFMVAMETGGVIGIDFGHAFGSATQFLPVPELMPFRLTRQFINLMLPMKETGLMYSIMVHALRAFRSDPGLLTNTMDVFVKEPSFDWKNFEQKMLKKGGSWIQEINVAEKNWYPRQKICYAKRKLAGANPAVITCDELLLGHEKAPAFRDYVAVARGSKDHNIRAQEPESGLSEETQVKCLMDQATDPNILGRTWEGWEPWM

B1: scFv 18-2 (scFv, V domains shown)
VH: QVKLQESGAELVKPGASVKLSCKAFDYTFTTYDINWIKQRPGQGLWIGWIYPGSGNNKYNEKFKGKATLTADKSSRAAYMHLSSLTSEDSAVYFCAGGPLNMTGFDYWGQGTTVTVSS
VL: DIELTQSPSSMYASLGERVTITCKASQDINSYLSWFQQKPGKSPKTLIYRANRLVDGVPSRFSGSGSGQDYSLTISSLEYEDMGIYYCLQYDELPLTFGAGTKLEIK
As for B1, in test [1], the decrease in p53 peptide phosphorylation activity worked out at 50%. Also, the Kd in test [2] is 1.4 nM.

The Kd is the free concentration of one partner at which half of the binding sites on the other are occupied at equilibrium, for simple one-to-one binding. A higher Kd goes with weaker binding.
